Laboratory results: patent US20060257938A1, “Method of screening for drugs that block ligand binding to a lipid binding protein” (priority 2005, published 2006)
Where “and” joins values, the source holds several entries; their conditions need not be identical. Equal values may be shown once.

How the values were obtained:
Assay type in all cases: binding
Conditions in all cases: response relative to ADIFAB2
[1] = Probe fluorescence ratio response to arachidonic acid relative to ADIFAB2
How it was run: (§1)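 Fluorescently labeled rat intestinal FABP variants were read at two emission wavelengths, near the unbound maximum (about 420 to 480 nm) and the FFA-bound maximum (about 495 to 580 nm). R = Fλ1/Fλ2 after subtracting probe-free intensity; ΔR = R+agent − R0, normalized to ADIFAB2 (rI-FABP-L72A).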

[2] = Probe fluorescence ratio response to palmitic acid relative to ADIFAB2
How it was run: as §1

[3] = Probe fluorescence ratio response to linolenic acid relative to ADIFAB2
How it was run: as §1

[4] = Probe fluorescence ratio response to linoleic acid relative to ADIFAB2
How it was run: as §1

[5] = Probe fluorescence ratio response to oleic acid relative to ADIFAB2
How it was run: as §1

| Molecule | DR/DR AA ([1]; Arachidonic acid) | DR/DR PA [2] | DR/DR LNA [3] | DR/DR LA [4] | DR/DR OA [5] | DR/DR AA ([1]; arachidonic acid) |
| --- | --- | --- | --- | --- | --- | --- |
| 47A1, L72A (protein, listed as Rattus norvegicus, PEPTIDE (1)...(131) wild-type rat intestinal fatty acid binding protein) AFDGTWKVDRNENYEKFMEKMGINVVKRKLGAHDNLKLTITQEGNKATVKESSNFRNIDVVFELGVDFAYSAADGTELTGTWTMEGNKLVGKFKRVDNGKELIAVREISGNELIQTYTYEGVEAKRIFKKE | 0.54 | 0.30 | 0.57 | 0.58 | 0.59 | – |
| 47H1, L72A (protein, listed as Rattus norvegicus, PEPTIDE (1)...(131) wild-type rat intestinal fatty acid binding protein) AFDGTWKVDRNENYEKFMEKMGINVVKRKLGAHDNLKLTITQEGNKHTVKESSNFRNIDVVFELGVDFAYSAADGTELTGTWTMEGNKLVGKFKRVDNGKELIAVREISGNELIQTYTYEGVEAKRIFKKE | 0.63 | 0.43 | 0.70 | 0.74 | 0.67 | – |
| 47E3, L72A (protein, listed as Rattus norvegicus, PEPTIDE (1)...(131) wild-type rat intestinal fatty acid binding protein) AFDGTWKVDRNENYEKFMEKMGINVVKRKLGAHDNLKLTITQEGNKETVKESSNFRNIDVVFELGVDFAYSAADGTELTGTWTMEGNKLVGKFKRVDNGKELIAVREISGNELIQTYTYEGVEAKRIFKKE | 1.25 | 1.06 | 1.26 | 1.23 | 1.25 | – |
| 47V3, L72A (protein, listed as Rattus norvegicus, PEPTIDE (1)...(131) wild-type rat intestinal fatty acid binding protein) AFDGTWKVDRNENYEKFMEKMGINVVKRKLGAHDNLKLTITQEGNKVTVKESSNFRNIDVVFELGVDFAYSAADGTELTGTWTMEGNKLVGKFKRVDNGKELIAVREISGNELIQTYTYEGVEAKRIFKKE | 1.00 | 0.78 | 1.01 | 1.04 | 1.01 | – |
| 102R, 72A (protein, listed as Rattus norvegicus, PEPTIDE (1)...(131) wild-type rat intestinal fatty acid binding protein) AFDGTWKVDRNENYEKFMEKMGINVVKRKLGAHDNLKLTITQEGNKFTVKESSNFRNIDVVFELGVDFAYSAADGTELTGTWTMEGNKLVGKFKRVDNGKERIAVREISGNELIQTYTYEGVEAKRIFKKE | – | 0.25 | 0.57 | 0.60 | 0.56 | 0.51 |
| 47C3, L72A (protein, listed as Rattus norvegicus, PEPTIDE (1)...(131) wild-type rat intestinal fatty acid binding protein) AFDGTWKVDRNENYEKFMEKMGINVVKRKLGAHDNLKLTITQEGNKCTVKESSNFRNIDVVFELGVDFAYSAADGTELTGTWTMEGNKLVGKFKRVDNGKELIAVREISGNELIQTYTYEGVEAKRIFKKE | 0.32 | 0.23 | 0.35 | 0.37 | 0.35 | – |
| 47R3, L72A (protein, listed as Rattus norvegicus, PEPTIDE (1)...(131) wild-type rat intestinal fatty acid binding protein) AFDGTWKVDRNENYEKFMEKMGINVVKRKLGAHDNLKLTITQEGNKRTVKESSNFRNIDVVFELGVDFAYSAADGTELTGTWTMEGNKLVGKFKRVDNGKELIAVREISGNELIQTYTYEGVEAKRIFKKE | 0.56 | 0.30 | 0.61 | 0.64 | 0.62 | – |
| 47M, 72A (protein, listed as Rattus norvegicus, PEPTIDE (1)...(131) wild-type rat intestinal fatty acid binding protein) AFDGTWKVDRNENYEKFMEKMGINVVKRKLGAHDNLKLTITQEGNKMTVKESSNFRNIDVVFELGVDFAYSAADGTELTGTWTMEGNKLVGKFKRVDNGKELIAVREISGNELIQTYTYEGVEAKRIFKKE | 1.14 | 0.97 and 0.966 | 1.13 and 1.135 | 1.18 and 1.183 | 1.17 and 1.168 | 1.138 |
| 47L2, L72A (protein, listed as Rattus norvegicus, PEPTIDE (1)...(131) wild-type rat intestinal fatty acid binding protein) AFDGTWKVDRNENYEKFMEKMGINVVKRKLGAHDNLKLTITQEGNKLTVKESSNFRNIDVVFELGVDFAYSAADGTELTGTWTMEGNKLVGKFKRVDNGKELIAVREISGNELIQTYTYEGVEAKRIFKKE | 1.15 | 0.90 | 1.20 | 1.21 | 1.20 | – |
| 47S1, L72A (protein, listed as Rattus norvegicus, PEPTIDE (1)...(131) wild-type rat intestinal fatty acid binding protein) AFDGTWKVDRNENYEKFMEKMGINVVKRKLGAHDNLKLTITQEGNKSTVKESSNFRNIDVVFELGVDFAYSAADGTELTGTWTMEGNKLVGKFKRVDNGKELIAVREISGNELIQTYTYEGVEAKRIFKKE | 0.61 | 0.34 | 0.69 | 0.66 | 0.64 | – |
| 47I2, L72A (protein, listed as Rattus norvegicus, PEPTIDE (1)...(131) wild-type rat intestinal fatty acid binding protein) AFDGTWKVDRNENYEKFMEKMGINVVKRKLGAHDNLKLTITQEGNKITVKESSNFRNIDVVFELGVDFAYSAADGTELTGTWTMEGNKLVGKFKRVDNGKELIAVREISGNELIQTYTYEGVEAKRIFKKE | 1.19 | 0.92 | 1.19 | 1.22 | 1.15 | – |
| 102S, 72A (protein, listed as Rattus norvegicus, PEPTIDE (1)...(131) wild-type rat intestinal fatty acid binding protein) AFDGTWKVDRNENYEKFMEKMGINVVKRKLGAHDNLKLTITQEGNKFTVKESSNFRNIDVVFELGVDFAYSAADGTELTGTWTMEGNKLVGKFKRVDNGKESIAVREISGNELIQTYTYEGVEAKRIFKKE | – | 0.18 | 0.43 | 0.45 | 0.43 | 0.39 |
| 47T1, L72A (protein, listed as Rattus norvegicus, PEPTIDE (1)...(131) wild-type rat intestinal fatty acid binding protein) AFDGTWKVDRNENYEKFMEKMGINVVKRKLGAHDNLKLTITQEGNKTTVKESSNFRNIDVVFELGVDFAYSAADGTELTGTWTMEGNKLVGKFKRVDNGKELIAVREISGNELIQTYTYEGVEAKRIFKKE | 0.68 | 0.46 | 0.74 | 0.77 | 0.74 | – |
| 47Y2, L72A (protein, listed as Rattus norvegicus, PEPTIDE (1)...(131) wild-type rat intestinal fatty acid binding protein) AFDGTWKVDRNENYEKFMEKMGINVVKRKLGAHDNLKLTITQEGNKYTVKESSNFRNIDVVFELGVDFAYSAADGTELTGTWTMEGNKLVGKFKRVDNGKELIAVREISGNELIQTYTYEGVEAKRIFKKE | 1.37 | 1.17 | 1.40 | 1.40 | 1.42 | – |
| 47P1, L72A (protein, listed as Rattus norvegicus, PEPTIDE (1)...(131) wild-type rat intestinal fatty acid binding protein) AFDGTWKVDRNENYEKFMEKMGINVVKRKLGAHDNLKLTITQEGNKPTVKESSNFRNIDVVFELGVDFAYSAADGTELTGTWTMEGNKLVGKFKRVDNGKELIAVREISGNELIQTYTYEGVEAKRIFKKE | 0.54 | 0.26 | 0.61 | 0.59 | 0.57 | – |
